Patent publication US20130053541A1, “METHODS FOR DISCOVERING MOLECULES THAT BIND TO PROTEINS” (LYNNTECH, INC., priority 2011, published 2013)
Where no end group is shown, it is not given here.

Columns and labels:
ERβ = ERβ (Homo sapiens, UniProt Q92731); details: cited from earlier work; for Ki: inhibition of estrogen receptor/coactivator recognition, read-out: K, values ERβ; for ERβ/ERα: ratio of K values
ERα [1] = target: T1, ERα (Homo sapiens, UniProt P03372); details: inhibition of estrogen receptor/coactivator recognition, cited from earlier work; for Ki: read-out: K, values ERα
T1 sequence (P03372 1-595): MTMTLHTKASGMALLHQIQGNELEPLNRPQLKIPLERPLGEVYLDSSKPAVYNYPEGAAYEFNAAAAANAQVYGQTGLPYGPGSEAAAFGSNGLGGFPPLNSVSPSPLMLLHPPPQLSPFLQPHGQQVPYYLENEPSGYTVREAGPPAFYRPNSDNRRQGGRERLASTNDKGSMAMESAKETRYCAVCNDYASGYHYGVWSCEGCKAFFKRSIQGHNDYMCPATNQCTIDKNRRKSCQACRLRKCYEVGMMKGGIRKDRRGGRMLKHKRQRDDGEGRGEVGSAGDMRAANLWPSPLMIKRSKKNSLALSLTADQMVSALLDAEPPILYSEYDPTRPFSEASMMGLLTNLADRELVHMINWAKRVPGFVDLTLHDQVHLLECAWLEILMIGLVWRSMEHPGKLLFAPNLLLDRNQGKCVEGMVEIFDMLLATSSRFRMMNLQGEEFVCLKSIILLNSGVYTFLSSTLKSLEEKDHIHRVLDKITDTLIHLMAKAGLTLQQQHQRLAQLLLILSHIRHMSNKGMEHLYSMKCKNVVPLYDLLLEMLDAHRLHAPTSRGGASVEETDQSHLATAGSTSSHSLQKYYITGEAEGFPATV

ERα [2] = target: T1, ERα; details: cited from earlier work
[3] = cited from earlier work
mAb-E2 = details: cited from earlier work
[4] = target: T2, (Homo sapiens, UniProt P11474); details: phage display peptides; cited from earlier work
T2 sequence (P11474 1-423): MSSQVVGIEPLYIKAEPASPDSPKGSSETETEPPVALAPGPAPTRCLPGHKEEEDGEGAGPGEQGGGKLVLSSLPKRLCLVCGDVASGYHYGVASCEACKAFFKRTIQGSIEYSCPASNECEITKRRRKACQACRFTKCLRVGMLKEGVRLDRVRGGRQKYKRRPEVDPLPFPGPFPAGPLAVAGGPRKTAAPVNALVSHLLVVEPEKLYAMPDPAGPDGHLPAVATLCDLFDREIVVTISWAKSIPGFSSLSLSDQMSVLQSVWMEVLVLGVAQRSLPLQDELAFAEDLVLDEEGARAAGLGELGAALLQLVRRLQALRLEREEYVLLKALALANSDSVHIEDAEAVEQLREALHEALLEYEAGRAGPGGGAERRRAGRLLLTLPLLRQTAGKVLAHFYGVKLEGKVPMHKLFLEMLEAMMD

[5] = target: T3, ERRgamma ligand-binding domain (LBD) (Homo sapiens, UniProt P62508); details: cited from earlier work; for interaction with ERRgamma: in the absence of ligand
T3 sequence (P62508 233-457 limits assumed): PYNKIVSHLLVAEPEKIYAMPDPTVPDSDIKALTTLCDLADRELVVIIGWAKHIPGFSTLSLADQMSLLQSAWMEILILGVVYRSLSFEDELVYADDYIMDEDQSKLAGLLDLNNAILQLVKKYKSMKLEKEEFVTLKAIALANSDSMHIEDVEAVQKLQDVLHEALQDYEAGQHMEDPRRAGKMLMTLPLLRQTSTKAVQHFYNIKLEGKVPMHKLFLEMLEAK

[6] = target: T4, native human ESRRG protein (Estrogen-receptor related receptor gamma) (human, UniProt P62508 229-458, limits assumed); assay: peptide microarray, Iteration 1; bound ESRRG detected with fluorescent anti-ESRRG mAb
T4 construct: the screened protein is called 'native human ESRRG protein'; also called ESSRG; ERRγ
T4 sequence (looked up): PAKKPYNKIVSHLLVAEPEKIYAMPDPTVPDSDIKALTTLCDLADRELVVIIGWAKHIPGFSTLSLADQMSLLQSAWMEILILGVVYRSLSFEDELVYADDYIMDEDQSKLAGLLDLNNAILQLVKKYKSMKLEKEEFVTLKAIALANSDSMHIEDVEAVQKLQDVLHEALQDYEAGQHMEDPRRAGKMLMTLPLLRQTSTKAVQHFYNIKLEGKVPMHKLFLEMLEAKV
Experimental: Screening was carried out typically by hybridization of the protein (1 μg/mL) against the array for 1 h at 4° C.; detection of bound protein was carried out using a fluorescently labeled anti-ESRRG mAb. (Direct labeling of ESRRG and alternative detection strategies are equally valid).
Daughter candidate ligands and their new Tier 3 and/or Tier 1 based combinations were synthesized in situ on an addressable peptide microarray and screened against native human ESRRG protein in order to determine sequences that bind to this protein. Bound protein was detected by a fluorescently labeled anti-ESRRG mAb. […] Excess (100×) competing biological matrices (human serum, HSA/BSA or bacterial protein extract) were used as backgrounds to select for specific ligands to the protein. Other competing proteins can be added to background for specificity selection and directed evolution of ligands.

[7] = target: T4, native human ESRRG protein …; assay: custom peptide microarray density chip
Annexin A5 = target: T5, Annexin A5 (Homo sapiens (Human), UniProt P08758 2-320, directly labeled with a fluorescent tag (Cy 5 per paragraph 324; Cy3 per paragraph 57)); assay: peptide density-array chip
T5 construct: also called ANXA5; ANX-A5
T5 sequence: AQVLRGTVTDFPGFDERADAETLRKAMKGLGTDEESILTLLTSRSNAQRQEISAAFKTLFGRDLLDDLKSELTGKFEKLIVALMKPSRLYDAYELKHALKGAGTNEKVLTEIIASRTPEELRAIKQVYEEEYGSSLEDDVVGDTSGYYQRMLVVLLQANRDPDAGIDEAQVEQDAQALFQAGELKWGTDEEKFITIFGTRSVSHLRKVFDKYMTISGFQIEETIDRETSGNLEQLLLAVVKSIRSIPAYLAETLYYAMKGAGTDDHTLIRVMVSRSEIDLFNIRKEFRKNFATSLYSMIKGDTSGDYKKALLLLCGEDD

Sequence of ERβ (Q92731 whole entry, species assumed): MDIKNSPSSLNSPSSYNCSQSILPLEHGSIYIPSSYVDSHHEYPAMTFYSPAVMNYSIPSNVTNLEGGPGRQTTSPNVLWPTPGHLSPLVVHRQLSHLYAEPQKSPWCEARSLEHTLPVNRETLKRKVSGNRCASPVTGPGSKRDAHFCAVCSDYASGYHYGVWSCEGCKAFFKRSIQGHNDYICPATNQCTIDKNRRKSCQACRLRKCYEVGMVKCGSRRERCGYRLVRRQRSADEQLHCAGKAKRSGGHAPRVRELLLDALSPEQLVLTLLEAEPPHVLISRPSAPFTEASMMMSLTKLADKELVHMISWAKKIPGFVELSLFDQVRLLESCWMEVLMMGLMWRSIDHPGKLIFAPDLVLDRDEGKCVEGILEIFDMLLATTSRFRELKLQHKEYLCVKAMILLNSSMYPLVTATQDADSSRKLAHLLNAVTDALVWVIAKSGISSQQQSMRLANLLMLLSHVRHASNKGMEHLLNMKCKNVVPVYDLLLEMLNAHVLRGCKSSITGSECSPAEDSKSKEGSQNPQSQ

Molecule: Mannosylacetyl-Leu-Glu-Gln-Leu-Leu-OH (Mannosylacetyl-LEQLL-OH) [Structure 2]
- Ki (ERβ): > 200000 nM
- Ki (ERα [1]): > 200000 nM

Molecule: VSWFFE [EMP-1]
- IC50 (ERα [2]): 100000 nM
- estrogenic activity in vivo [3]: possess estrogenic activity in vivo
- IC50 (mAb-E2): 6 nM

Molecule: LTERHKILHRLLQEGSPSD [Structure 9]
- Ki (ERβ): 5200 nM
- ERβ/ERα (ERβ): 7.4
- Ki (ERα [1]): 700 nM

Molecule: MSVQYPELQRLLMAGSTEL [Peptide L3-28]
- inhibition of transcriptional activity of EPPα [4]: reducing the transcriptional activity of EPPα to basal levels

Molecule: GPQTPQAQQKSLLQQLLTE [SRC1-4]
- interaction with ERRgamma [5]: interacted most strongly

Molecule: VSWFFED [EMP-2]
- IC50 (ERα [2]): 100000 nM
- estrogenic activity in vivo [3]: possess estrogenic activity in vivo
- IC50 (mAb-E2): 30 nM

Molecule: EAEEPSLLKKLLLAPANTQ [PGC1alpha]
- interaction with ERRgamma [5]: interacted most strongly

Molecule: PSEDRGELWRLLSVTERQN [Peptide L3-09]
- inhibition of transcriptional activity of EPPα [4]: reducing the transcriptional activity of EPPα to basal levels

Molecule: 4-hydroxytamoxifen
- displacement of fluorescein-labeled PGC1alpha peptide from the ERRgamma LBD ([5]; increasing concentrations): displaced

Molecule: LPYEGSLLLKLLRAPVEEV [Peptide D22]
- interaction with ERRgamma [5]: interacted most strongly

Molecule: QAQQKSLLQQLLTE [Structure 10]
- Ki (ERβ): 1100 nM
- ERβ/ERα (ERβ): 2.4
- Ki (ERα [1]): 450 nM

Molecule: KKILHRLLQ [Structure 3]
- Ki (ERβ): 2800 nM
- ERβ/ERα (ERβ): 16.5
- Ki (ERα [1]): 170 nM

Molecule: IPLSGSELSRLLLTEMPEL [Peptide L3-80]
- inhibition of transcriptional activity of EPPα [4]: reducing the transcriptional activity of EPPα to basal levels

Molecule: KHKILHRLLQDSS [Structure 4]
- Ki (ERβ): 6900 nM
- ERβ/ERα (ERβ): 18.1
- Ki (ERα [1]): 380 nM

Molecule: LEQLL [Structure 1, H-Leu-Glu-Gln-Leu-Leu-OH]
- Ki (ERβ): 201000 nM
- K, values ERα (ERα [1]): not active

B1: LLHSSKSQ (peptide)
peptide: Ac-LLHSSKSQ
- Sample B (Probe) Signal [6]: 819 fluorescence intensity units
- log2 (Sample B/Sample A) [6]: 5.4
- Kd [7]: 28.3 nM

B2: LLHKSKSQ (peptide)
peptide: Ac-LLHKSKSQ
- Sample B (Probe) Signal [6]: 962 fluorescence intensity units
- log2 (Sample B/Sample A) [6]: 4.99
- Kd [7]: 28.5 nM

B3: AIRGALMG (peptide)
peptide: Ac-AIRGALMG
- Sample B (Probe) Signal [6]: 851 fluorescence intensity units
- log2 (Sample B/Sample A) [6]: 5.48
- Kd [7]: 27.4 nM

B4: AIRLHLMG (peptide)
peptide: Ac-AIRLHLMG
- Sample B (Probe) Signal [6]: 943 fluorescence intensity units
- log2 (Sample B/Sample A) [6]: 5.07
- Kd [7]: 22.4 nM

B5: SERFFARY (peptide)
peptide: SERFFARY
notes: Array-synthesised 8-mer
- Kd (Annexin A5): 520 nM

B6: ANNSRLLH (peptide)
peptide: Ac-ANNSRLLH
- Sample B (Probe) Signal [6]: 1480 fluorescence intensity units
- log2 (Sample B/Sample A) [6]: 5.54
- Kd [7]: 28.9 nM

B7: NIKVNANN (peptide)
peptide: Ac-NIKVNANN
- Sample B (Probe) Signal [6]: 599 fluorescence intensity units
- log2 (Sample B/Sample A) [6]: 7.62
- Kd [7]: 17 nM

B8: AANMFLLL (peptide)
peptide: Ac-AANMFLLL
- Sample B (Probe) Signal [6]: 1750 fluorescence intensity units
- log2 (Sample B/Sample A) [6]: 5.37
- Kd [7]: 29 nM

B9: SERYWARY (peptide)
peptide: SERYWARY
notes: Array-synthesised 8-mer
- Kd (Annexin A5): 91.7 nM

B10: SERYYARY (peptide)
peptide: SERYYARY
notes: Array-synthesised 8-mer
- Kd (Annexin A5): 361 nM

B11: SERCYARY (peptide)
peptide: SERCYARY
notes: Array-synthesised 8-mer
- Kd (Annexin A5): 301 nM

B12: SERCWARY (peptide)
peptide: SERCWARY
notes: Array-synthesised 8-mer
- Kd (Annexin A5): 218 nM

B13: SERYSARY (peptide)
peptide: SERYSARY
notes: Array-synthesised 8-mer
- Kd (Annexin A5): 82.5 nM

B14: SERYTARY (peptide)
peptide: SERYTARY
notes: Array-synthesised 8-mer
- Kd (Annexin A5): 86.9 nM

B15: AYLHHAAG (peptide)
peptide: AYLHHAAG
notes: Array-synthesised 8-mer
- Kd (Annexin A5): 87.6 nM

B16: AYLVHAAG (peptide)
peptide: AYLVHAAG
notes: Array-synthesised 8-mer
- Kd (Annexin A5): 92.2 nM

B17: AYLHGAAG (peptide)
peptide: AYLHGAAG
notes: Array-synthesised 8-mer
- Kd (Annexin A5): 93.1 nM

B18: AYLHYAAG (peptide)
peptide: AYLHYAAG
notes: Array-synthesised 8-mer
- Kd (Annexin A5): 21.9 nM

B19: AYLMHAAG (peptide)
peptide: AYLMHAAG
notes: Array-synthesised 8-mer
- Kd (Annexin A5): 63 nM

B20: AYLGYAAG (peptide)
peptide: AYLGYAAG
notes: Array-synthesised 8-mer
- Kd (Annexin A5): 24.5 nM

B21: AYLGHAAG (peptide)
peptide: AYLGHAAG
notes: Array-synthesised 8-mer
- Kd (Annexin A5): 57.5 nM
